Assay results taken from patent publication US20180371091A1 (JOUNCE THERAPEUTICS, published 2018).

T1: hICOSL-mG2a (human; mouse, UniProt O75144 19-256, limits assumed)
T1 construct: also called hICOSL-mG2a Fc; not shown: mouse IgG2a Fc
T1 sequence (looked up): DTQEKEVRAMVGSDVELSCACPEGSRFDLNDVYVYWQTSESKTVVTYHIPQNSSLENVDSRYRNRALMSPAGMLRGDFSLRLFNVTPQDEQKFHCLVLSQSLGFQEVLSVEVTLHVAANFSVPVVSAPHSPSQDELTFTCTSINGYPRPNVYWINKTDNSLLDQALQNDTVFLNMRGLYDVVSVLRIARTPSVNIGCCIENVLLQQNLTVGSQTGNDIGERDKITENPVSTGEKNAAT

T2: mouse ICOS (full length, on cells) (mouse, UniProt Q9WVS0 21-200)
T2 construct: also called CHO-mICOS; mouse ICOS+ CHO cells
T2 sequence: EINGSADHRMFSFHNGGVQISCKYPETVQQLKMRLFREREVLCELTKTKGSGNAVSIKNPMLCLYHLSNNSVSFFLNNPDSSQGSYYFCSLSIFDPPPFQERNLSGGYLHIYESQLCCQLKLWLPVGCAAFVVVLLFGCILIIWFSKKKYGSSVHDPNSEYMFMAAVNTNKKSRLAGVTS

T3: mouse ICOS-hFc (homodimeric, bivalent) (mouse; human, UniProt Q9WVS0 21-142)
T3 construct: also called mICOS-hFc; mouse ICOS-Fc; not shown: human IgG1 Fc (IgG1 backbone)
T3 sequence: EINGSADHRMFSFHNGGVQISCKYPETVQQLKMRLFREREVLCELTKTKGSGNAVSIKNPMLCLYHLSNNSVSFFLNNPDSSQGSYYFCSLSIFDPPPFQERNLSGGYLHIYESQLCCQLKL

T4: monovalent, heterodimeric human ICOS-Fc (human)
T4 construct: Make-up of the heterodimer is not described; also called Monomeric hICOS; monomeric form of human ICOS; not shown: The human IgG1 Fc fused to ICOS, and the partner Fc chain of the heterodimer
T4 chain: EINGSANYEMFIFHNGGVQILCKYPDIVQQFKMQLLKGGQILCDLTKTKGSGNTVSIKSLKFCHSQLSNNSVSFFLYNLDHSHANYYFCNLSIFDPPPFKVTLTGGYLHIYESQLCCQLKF

T5: cynomolgus ICOS-Fc (homodimeric, bivalent) (cynomolgus monkey, UniProt Q9Y6W8 21-140 (human entry))
T5 construct: also called cynoICOS-Fc; cyno ICOS-Fc; not shown: human IgG1 Fc (IgG1 backbone)
T5 chain: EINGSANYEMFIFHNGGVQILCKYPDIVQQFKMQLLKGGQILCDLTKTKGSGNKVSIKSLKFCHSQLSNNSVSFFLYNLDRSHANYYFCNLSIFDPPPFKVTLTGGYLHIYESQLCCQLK

T6: mouse PD-1 Fc fusion (dimeric) (mouse, UniProt Q02242 25-167)
T6 construct: not shown: Fc part not described
T6 sequence (looked up): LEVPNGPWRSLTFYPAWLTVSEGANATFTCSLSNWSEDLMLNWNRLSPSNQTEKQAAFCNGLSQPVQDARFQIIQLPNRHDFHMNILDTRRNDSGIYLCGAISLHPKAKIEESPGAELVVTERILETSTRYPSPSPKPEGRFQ

T7: mouse BTLA Fc fusion (dimeric) (mouse, UniProt Q7TSA3 30-183)
T7 construct: not shown: Fc part not described
T7 sequence (looked up): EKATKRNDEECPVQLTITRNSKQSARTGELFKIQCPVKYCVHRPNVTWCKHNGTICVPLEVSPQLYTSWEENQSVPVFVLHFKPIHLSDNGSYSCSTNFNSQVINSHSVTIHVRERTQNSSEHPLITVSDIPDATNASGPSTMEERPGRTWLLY

T8: human CTLA-4 Fc fusion (dimeric) (human, UniProt P16410 37-162)
T8 construct: not shown: Fc part not described
T8 sequence (looked up): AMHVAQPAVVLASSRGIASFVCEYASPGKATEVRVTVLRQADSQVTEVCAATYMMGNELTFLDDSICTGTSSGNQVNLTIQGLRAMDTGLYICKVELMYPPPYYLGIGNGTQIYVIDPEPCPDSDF

T9: human BTLA Fc fusion (dimeric) (human, UniProt Q7Z6A9 31-157)
T9 construct: not shown: Fc part not described
T9 sequence (looked up): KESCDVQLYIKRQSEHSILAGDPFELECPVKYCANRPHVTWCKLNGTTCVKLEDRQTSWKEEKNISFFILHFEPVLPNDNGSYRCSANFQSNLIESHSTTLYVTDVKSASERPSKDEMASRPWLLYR

T10: mouse CD28 Fc fusion (dimeric) (mouse, UniProt P31041 20-150)
T10 construct: not shown: Fc part not described
T10 sequence (looked up): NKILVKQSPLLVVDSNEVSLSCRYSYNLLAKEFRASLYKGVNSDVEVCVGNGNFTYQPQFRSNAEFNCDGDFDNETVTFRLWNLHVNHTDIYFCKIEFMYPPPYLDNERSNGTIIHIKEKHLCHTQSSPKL

T11: human ICOS (full length, on cells) (human, UniProt Q9Y6W8 21-199)
T11 construct: also called CHO-hICOS; human ICOS+ CHO cells
T11 sequence: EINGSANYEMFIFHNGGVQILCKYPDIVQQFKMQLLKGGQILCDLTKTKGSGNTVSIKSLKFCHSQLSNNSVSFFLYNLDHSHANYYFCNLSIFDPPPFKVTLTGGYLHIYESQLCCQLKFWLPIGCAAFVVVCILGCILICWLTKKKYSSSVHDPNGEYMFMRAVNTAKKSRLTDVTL

T12: monomeric form of cynomolgus monkey ICOS (cynomolgus monkey, UniProt Q9Y6W8 21-140 (human entry), limits assumed)
T12 chain: T5 chain

T13: monomeric form of rat ICOS (rat, UniProt Q9R1T7 21-145, limits assumed)
T13 sequence: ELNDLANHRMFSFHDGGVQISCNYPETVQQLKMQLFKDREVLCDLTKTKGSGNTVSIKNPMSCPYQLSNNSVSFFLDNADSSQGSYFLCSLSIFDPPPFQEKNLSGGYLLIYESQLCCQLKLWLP

B1: human ICOS-hFc (homodimeric, bivalent) (Fc fusion)
chain: T4 chain
notes: also called hICOS-Fc; hICOS-hFc; not shown: human IgG1 Fc (IgG1 backbone)
B2: 35A9 (antibody, V domains shown)
VH: EVQLVESGGGLVKPGGSLKLSCAASGFTFSDYWMDWVRQAPGKGLEWVGNIDEDGSIAEYSPFVKGRFTISRDNVKNTLYLQMNSVKSEDTATYYCSRWGRFAFDSWGQGTLVTVSS
VL: DIVMTQSPSSLAVSAGDRVTINCKSSQSLLSGSFNYLTWYQQKTGQAPKLLIFYASTRHTGVPDRFMGSGSGTDFTLTINSFQTEDLGDYYCHHHYNAPPTFGPGTKLELR
notes: Armenian hamster monoclonal tested as IgG; also called hamster anti-ICOS 35A9
B3: 2M13 (antibody, V domains shown)
VH: EVQLQQSGAELVRPGAVVKLSCKASGFDIKDYYMHWVQQRPEQGLEWIGWIDPENGNAVYDPQFQGKASITADTSSNTAYLQLSSLTSEDTAVYYCASDYYGSKGYLDVWGAGTTVTVSS
VL: QIVLTQSPTIMSASPGEKVTITCSASSSVSYMHWFQQKPGTSPKLWIYSTSNLASGVPARFGGSRSGTSYSLTISRMEAEDAATYYCQQRSSYPFTFGSGTKLEIK
notes: Purified mouse monoclonal from a hybridoma; also called anti-ICOS antibody (2M13); anti-ICOS mAb 2M13
B4: 2M19 (antibody, V domains shown)
VH: EVQLQQSGAELVRSGASVKLSCTTSAFNIIDYYMHWVIQRPEQGLEWIAWIDPENGDPEYAPKFQDKATMTTDTSSNTAYLQLSSLTSEDTAVYYCTAWRGFAYWGQGTLVTVSA
VL: DVVMTQTPLSLPVSLGDQASISCRSSQSLVHSNGNTYLHWYLQKPGQSPKLLIYKVSNRFSGVPDRFSGSGSGTDFTLKISRVEAEDLGVYFCSQSIHVPPTFGGGTKLEIK
notes: Purified mouse monoclonal from a hybridoma; also called anti-ICOS mAb 2M19
B5: 37A10S713 (antibody, V domains shown)
VH: EVQLVESGGGLVQPGGSLRLSCAASGFTFSDYWMDWVRQAPGKGLVWVSNIDEDGSITEYSPFVKGRFTISRDNAKNTLYLQMNSLRAEDTAVYYCTRWGRFGFDSWGQGTLVTVSS
VL: DIVMTQSPDSLAVSLGERATINCKSSQSLLSGSFNYLTWYQQKPGQPPKLLIFYASTRHTGVPDRFSGSGSGTDFTLTISSLQAEDVAVYYCHHHYNAPPTFGPGTKVDIK
notes: also called humanized antibody having the variable regions of 37A10S713; 37A10S713-hIgG1

How the values were obtained:
[1] = target: T1, hICOSL-mG2a; assay: BLI, bivalent binding to homodimeric ICOS-Fc
[2] = target: T2, mouse ICOS (full length, on cells); assay: flow cytometry on ICOS+ CHO cells
Source text: To assess specificity, binding to human ICOS+ CHO cells and mouse ICOS+ CHO cells was individually analyzed by flow cytometry. As a control to screen out pan-reactive antibodies, staining on CHO cells lacking ICOS receptor expression was also examined. All of the selected antibodies bound to human and mouse ICOS+ CHO cells, and not to CHO cells lacking ICOS expression.

[3] = target: B1; assay: BLI (Octet RED96), full-length IgG vs homodimeric ICOS-Fc (avid)
Description: (§1) Affinity measurements were conducted using Bio-Layer Interferometry (BLI) technology (ForteBio Octet® RED96). The monovalent affinities were generated with IgG versions of the antibodies with monovalent, heterodimeric forms of the ICOS receptor. The avid affinities were generated using full-length IgGs against homodimeric forms of the ICOS receptor.

[4] = target: T3, mouse ICOS-hFc (homodimeric, bivalent); assay: BLI
Description: (§2) Cross-reactivity measurements were conducted using BLI technology with antibody panels being screened for binding to human, mouse, and cynomolgus ICOS-Fc fusions (homodimeric, bivalent forms).

[5] = target: B1; assay: BLI (Octet RED96), full-length IgG vs homodimeric ICOS-Fc (avid); bivalent (homodimeric) hICOS, avid; not monomeric hICOS
Description: as §1

[6] = target: T4, monovalent, heterodimeric human ICOS-Fc; assay: BLI (Octet RED96), IgG vs monovalent heterodimeric ICOS-Fc
Description: as §1

[7] = target: T5, cynomolgus ICOS-Fc (homodimeric, …); assay: BLI, bivalent binding to homodimeric ICOS-Fc
Description: as §2

[8] = target: B1; assay: BLI, bivalent binding to homodimeric ICOS-Fc
Description: as §2

[9] = target: T6, mouse PD-1 Fc fusion (dimeric); assay: binding to dimeric Fc fusions of CD28 family members
Description: (§3) To further assess the specificity of the anti-ICOS antibodies, the antibodies were screened for binding to additional members of the CD28 protein family (CD28, BTLA, PD-1 and CTLA-4). […] Specifically, binding to Fc fusions (of CD28, BTLA, PD-1 and CTLA-4) in dimeric forms was evaluated, and no binding was observed. For a subset of the CD28 family members, mouse or human protein was over-expressed on the surface of HEK293 and CHOK1 cells. No binding of antibody above background relative to untransduced parental cells was observed.

[10] = target: T7, mouse BTLA Fc fusion (dimeric); assay: as above
Description: as §3

[11] = target: T14, mouse CTLA-4 Fc fusion (dimeric) (mouse, UniProt P09793 36-162); assay: as above
T14 construct: not shown: Fc part not described
Description: as §3

[12] = target: T8, human CTLA-4 Fc fusion (dimeric); assay: as above
Description: as §3

[13] = target: T9, human BTLA Fc fusion (dimeric); assay: as above
Description: as §3

[14] = target: T10, mouse CD28 Fc fusion (dimeric); assay: as above
Description: as §3

[15] = target: T15, human PD-1 Fc fusion (dimeric) (human, UniProt Q15116 25-167); assay: as above
T15 construct: not shown: Fc part not described
Description: as §3

[16] = target: T16, human CD28 Fc fusion (dimeric) (human, UniProt P10747 19-152); assay: as above
T16 construct: not shown: Fc part not described
Description: as §3

[17] = target: T11, human ICOS (full length, on cells); assay: cell-based ELISA on fixed, permeabilised CHO cells expressing human ICOS, chemiluminescence (RLU)
Description: Chinese Hamster ovary (CHO) cells stably transfected with ICOS overexpressing plasmid (CHO-ICOS) or control plasmid (CHO-vector) were used to screen positive clones from the peptide ELISA assay using established protocols. Briefly, cells grown in 96 well plates were fixed and permeabilized using 10% formalin with 0.1% Triton X-100. Following blocking, cells were incubated with primary antibody, followed by HRP-conjugated anti-mouse antibody. Detection was carried out using chemiluminescence substrate. Commercial anti-ICOS antibody, SP98 (Spring Biosciences) was used as a positive control and mouse IgG1 was used as a negative control for the assay.

[18] = target: T12, monomeric form of cynomolgus monkey ICOS; assay: BLI (Octet RED96), monovalent, monomeric ICOS; mean ± SEM of 6 experiments
Description: (§4) The affinity of a humanized antibody having the variable regions of 37A10S713 for monomeric forms of ICOS from human, cynomolgus monkey and rat was measured by Bio-Layer Interferometry (BLI) technology (ForteBio Octet® RED96) and KD's are shown in Table 5. […] Functionality of binding was confirmed by assessing potency of inducing proliferation of primary CD4+ T cells isolated from each species.

[19] = target: T13, monomeric form of rat ICOS; assay: as above
Description: as §4

[20] = target: T4, monovalent, heterodimeric human ICOS-Fc; assay: as above
Description: as §4

T16 sequence (P10747 19-152): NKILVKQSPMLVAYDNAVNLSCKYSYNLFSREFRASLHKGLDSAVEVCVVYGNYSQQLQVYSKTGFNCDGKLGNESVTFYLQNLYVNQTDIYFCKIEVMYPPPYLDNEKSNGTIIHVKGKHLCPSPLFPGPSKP
T15 sequence (Q15116 25-167): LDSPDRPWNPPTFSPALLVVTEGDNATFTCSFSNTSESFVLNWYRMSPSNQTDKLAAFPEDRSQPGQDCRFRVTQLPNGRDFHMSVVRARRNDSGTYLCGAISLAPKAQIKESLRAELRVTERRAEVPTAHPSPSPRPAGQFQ

B1
Kd [1]: 0.362 nM
koff [1]: 0.000341 s⁻¹
kon [1]: 941000 M⁻¹ s⁻¹

B2
binding result [2]: binds
koff [3]: < 1e-07 s⁻¹
kon [3]: 625000 M⁻¹ s⁻¹
binding result [4]: binds
Kd [5]: < 0.001 nM
Kd [6]: 2.45 nM
koff [6]: 0.000438 s⁻¹
kon [6]: 178000 M⁻¹ s⁻¹
Kd [7]: < 0.001 nM
koff [7]: < 1e-07 s⁻¹
kon [7]: 740000 M⁻¹ s⁻¹
Kd [8]: < 0.001 nM
koff [8]: < 1e-07 s⁻¹
kon [8]: 1.01e+06 M⁻¹ s⁻¹
binding result [9]: no binding
binding result [10]: no binding
binding result [11]: no binding
binding result [12]: no binding
binding result [13]: no binding
binding result [14]: no binding
binding result [15]: no binding
binding result [16]: no binding

B3
binding result [17]: binds

B4
binding result [17]: binds

B5
Kd [18]: 0.66 nM
Kd [19]: 7.2 nM
Kd [20]: 1.5 nM
